In patent publication US20160280788A1, “USE OF ANTIBODIES AGAINST ICAM-1 IN THE TREATMENT OF PATIENTS WITH RELAPSED CANCER” (BioInvent International AB, priority 2010, published 2016):

Tests used:
[1] = system: ARH-77 cells; assay: Disseminated scid/ARH-77 model of multiple myeloma; assay type: in vivo, scid mice; conditions: i.v. on Days 7, 10, 13, 16; antibody 2 mg/kg, bortezomib 0.5 mg/kg; vs control
Protocol: ARH-77 cells or RPMI-8226 were injected intraveniously into the SCID mice. (FIG. 6A) ARH-77 model. Animals received intravenous injections with antibody at 2 mg/kg or bortezomib (Velcade) at 0.5 mg/kg on Days 7, 10, 13, and 16 (as indicated by arrows in the graph). (FIG. 6B) RPMI-8226-model. BI-505 or control mAb was administered i.v at 2 mg/kg, twice weekly for 8 weeks, bortezomid, at 1 mg/kg, once weekly for 8 weeks, lenalidomide p.o with 2 mg/kg for 2 cycles consisting of 5 days of treatment and 2 days of wash out, melphalan i.v at 3 mg/kg, once weekly for 8 weeks, and dexamethasone (DXH) at 6 mg/kg/inj 3 times/week for 2 consecutive weeks. There were 6-10 mice per treatment group. Statistical significance was calculated using Log-rank Graphpad Prism software and determined at ***p<0.001. (FIG. 6C) To study the ICAM-1 level on human cells, the cells from different organs were stained and gated for CD38+/mCD45−/BI-505+. Left panel indicates the percentage of BI-505 positive cells in CD38+/mCD45 population and right panel the mean fluorescent intensity of the positive cells.
The anti-myeloma effect of BI-505 was examined in a disseminated model of multiple myeloma. The early and advanced disseminated model of multiple myeloma was performed at Oncodesign, Dijon, France. Briefly: 1×10^6 (early) or 5×10^6 (advanced) ARH-77 tumor cells in 200 μL of RPMI 1640 were injected intravenously (i.v) into the caudal vein of female scid mice (D0). Tumor cell injections were performed twenty four to forty eight hours after a whole body irradiation of mice (1.8 Gy, ^60Co, INRA, BRETENNIERES). The treatment was started at D5 (RPMI-8226 model) or D7 ([…] model) except alkeran which was administered at D10. B11 or control mAb was administered i.v. at 2 mg/kg, twice weekly for 8 weeks, bortezomib, at 1 mg/kg, once weekly for 8 weeks, lenalidomide p.o with 2 mg/kg for 2 cycles consisting of 5 days of treatment and 2 days of wash out, melphalan i.v. at 3 mg/kg, once weekly for 8 weeks and dexamethasone at 6 mg/kg, injected 2 consecutive weeks.
The disseminated model of scid/ARH-77 is a well-established experimental model that resembles human multiple myeloma disease progression and disease manifestation in many respects (33). We utilized this model to further characterize IgG B11 anti-myeloma activity (FIG. 6A). Intravenous injection of irradiated scid mice with 1×10^6 ARH-77 cells was previously shown to result in their dissemination and establishment in mouse bone-marrow, and resulting osteolytic bone-lesions and hypercalcemia, and ultimately, in animal paralysis or difficulty of breathing at which time animals were immediately sacrificed. […]

[2] = system: ICAM-1 expressing tumor cell lines; assay: Complement-dependent cytotoxicity in tumor cell lines; assay type: cell-based; conditions: panel of ICAM-1 expressing tumor cell lines; human serum
Protocol: Target cells were harvested and incubated in RPMI medium with antibodies at 5 μg/mL or at titrated concentrations between 0.01-100 μg/mL for 60 min on ice. Cells were thereafter washed and resuspended in cold medium before dispension into flow cytometry tubes. Treatments were performed in triplicates. Human serum, normal or heat-inactivated, (Sigma, Sweden) was added to tubes and the samples were incubated for 2 h at 37° C. After completed incubation ToPo-Pro-3 was added at a final concentration of 0.3 μM and cells were analyzed for membrane permeabilization using flow cytometry.

[3] = system: NCI-H929 myeloma cells; assay: Subcutaneous myeloma xenograft, NCI-H929; assay type: in vivo, scid mice; conditions: 2 mg/kg twice weekly i.p.; vs control IgG1
Protocol: Antibody treatment with 2 mg/kg BI-505 or control IgG1 was started at Day 1 and was continued on a twice-weekly intraperitoneal dosing regimen. Mice were sacrificed when tumor sizes reached the ethical limit.

B1: IgG B11: fully human ICAM-1 antibody isolated from the n-CoDeR library; VH/VL sequences in FIG. 15 (SEQ ID NOs 8, 10) (antibody, V domains shown)
VH: EVQLLESGGGLVQPGGSLRLSCAASGFTFSNAWMSWVRQAPGKGLEWVAFIWYDGSNKYYADSVKGRFTISRDNSKNTLYLQMNSLRAEDTAVYYCARYSGWYFDYWGQGTLVTVSS
VL: QSVLTQPPSASGTPGQRVTISCTGSSSNIGAGYDVHWYQQLPGTAPKLLIYDNNNRPSGVPDRFSGSKSGTSASLAISGLRSEDEADYYCQSYDSSLSAWLFGGGTKLTVLG
modifications: B11 VH region; B11 VL region
animal survival [1]: increased mean survival time
time to symptomatic disease onset [1]: doubled
induction of CDC [2]: did not induce CDC
reduction of myeloma tumor growth [3]: 99%
